The record followed here is patent US7342091B2, “Soluble cyclic analogues of β amyloid peptide” (Fraunhofer-Gesellschaf zur Forderung der angewandten …, priority 2001, dated 2008).

The nature of series [1]: FT-IR of aged peptide solutions/suspensions (β-pleated sheet conformation). The class given is physicochemical. As to conditions: 450 μM solutions/suspensions, 10 mM phosphate buffer, 150 mM NaCl, 30% acetonitrile, pH 5.5. Here is the method:
(§1) The physicochemical properties of cβ-AP were investigated by FT-IR (Fourier-transform infrared spectrometry) and CD (circular dichroism spectropolarimetry). EM (electron microscopy) and AFM (atomic force microscopy) were used to test the properties of fibrils of cβ-AP128. In the EM studies, 450 μM solutions of cβ-AP128 or β-AP (1-28) (SEQ ID NO: 2) or [Lys^17, Asp^21] β-AP(1-28) (SEQ ID NO: 5) in 10 mM phosphate buffer, 150 mM NaCl and 30% acetonitrile, pH 5.5 were initially incubated for several days and tested for fibril formation.

A short description of series [2]: CD of peptide alone (β-pleated sheet formation and precipitation). The class given is physicochemical. Particulars: 10 mM phosphate buffer, 150 mM NaCl, 30% acetonitrile, pH 5.5. How it is done:
(§2) The effect of cβ-AP128 (SEQ ID NO: 20) on the aggregation and fibril formation of β-AP (1-28) was tested by CD and EM. A solution of 450 μM β-AP (1-28) (SEQ ID NO: […]) and cβ-AP128 (SEQ ID NO: […]) in 10 mM phosphate buffer, 150 mM NaCl and 30% acetonitrile, pH 5.5, was incubated for several days and tested for fibril formation by EM (FIGS. 2A and 2B).

Series [3] is described as follows: Testing of fibril formation by electron microscopy (EM). The class given is physicochemical. Particulars: 450 μM solution in 10 mM phosphate buffer, 150 mM NaCl, 30% acetonitrile, pH 5.5; for fibril formation (EM): after three days incubation. How it is done:
as §1

The next series addresses T1, β-AP (1-28) (Homo sapiens, UniProt P05067).
T1 construct: made in house; host or cells: chemical solid-phase peptide synthesis (Boc/Bzl on PAM resin), no expression host
Kind of series: Inhibition of the aggregation and fibril formation of β-AP (1-28) by cβ-AP128, tested by CD and EM. The class given is biochemical. Particulars: 450 μM β-AP (1-28) and cβ-AP128, 10 mM phosphate buffer, 150 mM NaCl, 30% acetonitrile, pH 5.5. How it is done: as §2

Bridges are numbered along the chain shown (N, C = ends). Where no end group is shown, it is not given here.

T1 sequence (P05067 672-699 limits assumed): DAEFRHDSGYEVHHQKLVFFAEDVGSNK

In the case of [Lys^17, Asp^21] β-AP (1-28), the “conformation by FT-IR after aging” value in series [1] is listed as “β-pleated sheet conformation”. Also, the “fate after β-pleated sheet formation” value in series [2] is recorded as “precipitated out as insoluble amyloid”. Further, in series [3], the “fibril formation (EM)” value was “completely fibrillated”.

For the substance “cyclo^17,21 [Lys^17, Asp^21] β-AP (1 to 28) (DAEFRHDSGYEVHHQKKVFFDEDVGSNK; lactam 17-21; listed as Homo sapiens) [cβ-AP128, β-AP (1-28) derivative with lactam bridge between side chains of Lys17 and Asp21]”, the “conformation by FT-IR after aging” value in series [1] is “prevents the β-pleated sheet conformation”. For the same substance, the “time without changes of the CD spectra of the mixture with β-AP (1-28)” value in the series with β-AP (1-28) is “more than 1 month”. For the same substance, in series [3], the “incubation time over which no fibrils were formed (EM)” value was “more than 30 days”.

Consider β-AP (1-28), for which, in series [1], the “conformation by FT-IR after aging” value is “β-pleated sheet conformation”. In series [2], the “fate after β-pleated sheet formation” value is reported as “precipitated out as insoluble amyloid”. Also, the “fibril formation (EM)” value in series [3] is on record as “completely fibrillated”.
